This passage reports binding result and stoichiometry N results from publication PMC6525047.

In one data set the target is T1, RIG-IdeltaN;RIPLET (human;human, UniProt O95786;Q8IUD6 230-925;1-432, |).
T1 sequence 1: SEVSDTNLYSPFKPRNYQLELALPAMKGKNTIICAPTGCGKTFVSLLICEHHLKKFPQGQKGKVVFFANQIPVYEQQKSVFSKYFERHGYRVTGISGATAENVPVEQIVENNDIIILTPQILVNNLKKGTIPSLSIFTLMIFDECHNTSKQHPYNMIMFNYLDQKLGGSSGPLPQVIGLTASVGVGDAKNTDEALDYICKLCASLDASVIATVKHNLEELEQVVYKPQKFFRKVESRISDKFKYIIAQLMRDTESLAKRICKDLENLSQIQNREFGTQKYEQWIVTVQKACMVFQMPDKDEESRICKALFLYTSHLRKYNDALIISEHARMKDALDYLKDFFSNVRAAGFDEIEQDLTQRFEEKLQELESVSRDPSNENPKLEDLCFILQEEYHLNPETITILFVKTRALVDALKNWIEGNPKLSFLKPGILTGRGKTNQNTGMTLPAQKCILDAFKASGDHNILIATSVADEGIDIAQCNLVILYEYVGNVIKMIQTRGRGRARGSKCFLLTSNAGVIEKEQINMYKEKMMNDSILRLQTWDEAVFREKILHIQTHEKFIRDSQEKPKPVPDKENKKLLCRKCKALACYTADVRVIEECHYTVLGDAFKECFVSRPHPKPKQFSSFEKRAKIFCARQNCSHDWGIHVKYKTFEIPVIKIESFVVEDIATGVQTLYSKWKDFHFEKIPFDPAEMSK
T1 sequence 2: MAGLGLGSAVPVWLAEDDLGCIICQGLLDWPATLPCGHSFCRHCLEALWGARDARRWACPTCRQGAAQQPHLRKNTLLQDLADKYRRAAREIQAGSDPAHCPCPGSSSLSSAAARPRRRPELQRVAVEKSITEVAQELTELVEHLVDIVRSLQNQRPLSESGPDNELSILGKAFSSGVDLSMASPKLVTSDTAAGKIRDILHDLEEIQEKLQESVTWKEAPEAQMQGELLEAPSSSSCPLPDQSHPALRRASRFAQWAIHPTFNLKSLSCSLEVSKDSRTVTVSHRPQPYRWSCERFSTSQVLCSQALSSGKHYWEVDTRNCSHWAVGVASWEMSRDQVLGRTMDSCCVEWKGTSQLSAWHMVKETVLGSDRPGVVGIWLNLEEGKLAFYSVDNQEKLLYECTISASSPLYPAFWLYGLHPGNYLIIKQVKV
Nature of the data set: EMSA. In general terms: Mobility shift assays separate free from complexed probe on a gel.

In another data set the target is T2, RIPLET (human), Q8IUD6.
T2 chain: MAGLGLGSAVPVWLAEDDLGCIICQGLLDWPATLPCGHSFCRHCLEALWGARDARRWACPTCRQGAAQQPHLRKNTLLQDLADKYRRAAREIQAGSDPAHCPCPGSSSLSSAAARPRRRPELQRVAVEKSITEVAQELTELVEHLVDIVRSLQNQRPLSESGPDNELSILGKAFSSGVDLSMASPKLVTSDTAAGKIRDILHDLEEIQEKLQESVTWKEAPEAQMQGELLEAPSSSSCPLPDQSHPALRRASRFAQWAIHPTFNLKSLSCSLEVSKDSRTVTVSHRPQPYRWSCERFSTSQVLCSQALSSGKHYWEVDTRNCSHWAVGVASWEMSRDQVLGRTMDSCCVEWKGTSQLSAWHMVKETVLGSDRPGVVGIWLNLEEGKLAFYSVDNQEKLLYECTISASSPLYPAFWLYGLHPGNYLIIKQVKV
The data set is described as follows: SEC-MALS. The following applies: remark: other sources report otherwise.

B1: 21 bp dsRNA (dsRNA)
RNA 1: GAGUCACGACGUUGUAAAAAA
RNA 2: UUUUUUACAACGUCGUGACUC
modifications: 5'ppp
Regarding B1, in the data set with RIG-IdeltaN;RIPLET, the binding result was “binds”.

B2: RIPLET, Q8IUD6 1-432 (enzyme)
chain: MAGLGLGSAVPVWLAEDDLGCIICQGLLDWPATLPCGHSFCRHCLEALWGARDARRWACPTCRQGAAQQPHLRKNTLLQDLADKYRRAAREIQAGSDPAHCPCPGSSSLSSAAARPRRRPELQRVAVEKSITEVAQELTELVEHLVDIVRSLQNQRPLSESGPDNELSILGKAFSSGVDLSMASPKLVTSDTAAGKIRDILHDLEEIQEKLQESVTWKEAPEAQMQGELLEAPSSSSCPLPDQSHPALRRASRFAQWAIHPTFNLKSLSCSLEVSKDSRTVTVSHRPQPYRWSCERFSTSQVLCSQALSSGKHYWEVDTRNCSHWAVGVASWEMSRDQVLGRTMDSCCVEWKGTSQLSAWHMVKETVLGSDRPGVVGIWLNLEEGKLAFYSVDNQEKLLYECTISASSPLYPAFWLYGLHPGNYLIIKQVKV
Turning to B2, the stoichiometry N in the data set with RIPLET (human), Q8IUD6 was 2.

A word on the stoichiometry N: it is the number of molecules, sites or subunits per partner or assembly.
